In patent US12637513B2, “Method of treating cancer by administering an inhibitor of erythropoietin receptor activity comprising either erythropoietin receptor or erythropoietin protein” (ImmunEdge, Inc., priority 2022, dated 2026):

Key:
[1] = biological target: T1, EPO/EPOR interaction (EPOR-CD131-Fc and EPO) (Homo sapiens, UniProt P19235+P32927); assay: Octet blocking of the EPO/EPOR interaction by hybridoma supernatants; type: binding; conditions: EPO 10 nM
T1 construct: Chimeric Fc fusion proteins of the extracellular domains of human EPOR and human CD131; purchased Sino Biological CT010-H02H
T1 sequence (P19235 25-250 limits assumed): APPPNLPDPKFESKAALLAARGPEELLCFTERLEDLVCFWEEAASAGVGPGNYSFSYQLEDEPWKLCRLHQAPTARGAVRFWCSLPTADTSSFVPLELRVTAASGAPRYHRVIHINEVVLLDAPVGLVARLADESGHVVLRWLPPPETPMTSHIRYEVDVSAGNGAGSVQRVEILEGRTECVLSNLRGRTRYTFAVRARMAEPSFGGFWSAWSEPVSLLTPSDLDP
T1 sequence (P32927 17-443 limits assumed): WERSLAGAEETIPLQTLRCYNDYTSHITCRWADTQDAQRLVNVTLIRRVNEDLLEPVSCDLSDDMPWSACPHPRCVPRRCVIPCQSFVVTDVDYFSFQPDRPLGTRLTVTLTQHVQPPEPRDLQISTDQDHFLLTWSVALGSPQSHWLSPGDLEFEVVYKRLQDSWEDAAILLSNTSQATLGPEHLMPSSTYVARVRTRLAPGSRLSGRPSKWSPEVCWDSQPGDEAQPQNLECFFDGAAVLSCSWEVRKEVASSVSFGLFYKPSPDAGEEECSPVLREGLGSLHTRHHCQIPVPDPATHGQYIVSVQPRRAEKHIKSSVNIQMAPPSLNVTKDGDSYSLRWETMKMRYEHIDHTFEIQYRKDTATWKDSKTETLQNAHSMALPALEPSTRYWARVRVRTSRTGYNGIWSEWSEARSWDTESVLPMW

[2] = biological target: T2, 293T/CD131 cells (Homo sapiens, UniProt P32927); assay: Staining of 293T/CD131 cells with purified antibodies; type: binding
T2 construct: expressed in transfected cells; host or cells: 293T cells, lentiviral transduction
T2 sequence (P32927 17-897): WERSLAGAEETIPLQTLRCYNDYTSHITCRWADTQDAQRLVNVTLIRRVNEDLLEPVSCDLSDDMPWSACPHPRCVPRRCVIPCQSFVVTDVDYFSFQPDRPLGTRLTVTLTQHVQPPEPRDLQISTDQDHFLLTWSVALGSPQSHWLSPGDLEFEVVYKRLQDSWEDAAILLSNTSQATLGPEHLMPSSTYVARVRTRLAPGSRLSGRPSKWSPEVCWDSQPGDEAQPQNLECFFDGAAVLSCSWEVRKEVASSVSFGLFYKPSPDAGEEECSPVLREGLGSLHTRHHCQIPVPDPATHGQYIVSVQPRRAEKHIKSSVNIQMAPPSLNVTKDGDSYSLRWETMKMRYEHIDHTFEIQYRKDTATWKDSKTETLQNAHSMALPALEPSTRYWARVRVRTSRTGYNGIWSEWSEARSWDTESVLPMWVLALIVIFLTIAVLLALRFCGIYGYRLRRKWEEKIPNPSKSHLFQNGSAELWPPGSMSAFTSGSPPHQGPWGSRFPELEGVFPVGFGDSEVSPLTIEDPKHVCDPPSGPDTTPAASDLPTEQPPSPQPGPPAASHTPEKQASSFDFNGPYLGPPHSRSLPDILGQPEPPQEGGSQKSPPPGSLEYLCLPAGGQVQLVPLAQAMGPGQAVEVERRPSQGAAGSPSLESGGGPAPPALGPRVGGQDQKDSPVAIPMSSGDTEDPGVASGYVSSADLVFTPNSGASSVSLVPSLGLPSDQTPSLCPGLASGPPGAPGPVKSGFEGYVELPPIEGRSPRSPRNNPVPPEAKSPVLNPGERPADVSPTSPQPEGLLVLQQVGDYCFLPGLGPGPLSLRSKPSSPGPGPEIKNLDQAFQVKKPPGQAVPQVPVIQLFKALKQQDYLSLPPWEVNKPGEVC
Experimental: The purified antibodies were used to stain the human leukemia UT-7 cells, 293T/EPOR, 293T/CD131, and 293T/EPOR/CD131 cells to confirm antigen binding. The UT-7 cells were maintained in Roswell Park Memorial Institute (RPMI) with 10% Fetal Bovine Serum (FBS) and 5 ng/ml of recombinant human GM-CSF (Peprotech®, Cat #300-03). The 293T cells expressing hEPOR, hCD131, or both were maintained in Dulbecco's Modified Eagle Medium (DMEM) with 10% FBS. 1×10^6 cells/ml were incubated with purified hybridoma clones M2 and M41 at a 3-fold dilution series starting from 20 μg/ml for 30 minutes at 4° C. After washing, the cells were incubated with PE labeled secondary antibody and subjected to flowcytometric analysis. […] The binding profiles of the 293T/EPOR/CD131 cells are similar except the peak MFIs around 1500, half of that of the 293T/EPOR cells (FIG. 29B).

[3] = biological target: T3, EPOR (UT-7 cells) (Homo sapiens, UniProt P19235); assay: Flow-based phosphorylated Stat5 assay, blocking by anti-EPOR antibodies; type: cell-based; conditions: 20 μg/ml antibody; 0.1 μg/ml recombinant human EPO
T3 construct: endogenous in cells; host or cells: UT-7 human leukemia cells
T3 sequence (P19235 25-508): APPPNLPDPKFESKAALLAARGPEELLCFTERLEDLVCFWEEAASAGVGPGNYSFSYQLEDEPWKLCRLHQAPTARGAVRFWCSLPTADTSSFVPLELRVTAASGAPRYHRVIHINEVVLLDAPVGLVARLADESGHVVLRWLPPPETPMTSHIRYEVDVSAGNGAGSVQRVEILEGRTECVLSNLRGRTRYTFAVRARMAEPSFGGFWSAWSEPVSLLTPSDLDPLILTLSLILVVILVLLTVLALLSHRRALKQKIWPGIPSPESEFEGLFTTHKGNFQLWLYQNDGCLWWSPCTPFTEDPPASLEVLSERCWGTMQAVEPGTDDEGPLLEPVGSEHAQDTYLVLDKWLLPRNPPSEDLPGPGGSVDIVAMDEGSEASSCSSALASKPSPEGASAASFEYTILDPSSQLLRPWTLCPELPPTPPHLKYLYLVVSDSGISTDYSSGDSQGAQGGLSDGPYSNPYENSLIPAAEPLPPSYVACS
Experimental: EPOR activation leads to phosphorylation of Stat5. A flow-based assay on phosphorylated Stat5 was set up to test the blocking activities of anti-EPOR antibodies. The UT-7 cells were cultured without GM-CSF for overnight before the EPO stimulation. 3×10^6 cells/ml were incubated with 20 μg/ml of anti-EPOR for 15 minutes before stimulation with 0.1 μg/ml of recombinant human EPO (Peprotech®, Cat #100-64) for 10 minutes at 37° C. The cells were fixed immediately with fixation buffer (Cytofix™ buffer; BD Biosciences, Cat #554655) and permeabilized with methanol. After washing, cells were stained with PE labeled anti-Stat5 (BD Biosciences, Cat #612567) and subjected to flow cytometry analysis.

B1: EPORab - M2: hybridoma antibody clone, VH/VK in Table 10 (antibody, V domains shown)
VH: QVQLVESGGGLVKPGGSLRLSCAASGFTFSDSYMSWIRQAPGKGLEWVSYISNSGSYMYYADSVKGRFTISRDNAKNSLYLQMNNLRAEDTAVYYCARDKLGIGDYWGQGTLVTVSS
VL: DIQMTQSPSSLSASVGDRVTITCRASQGIRNDLGWFQQKPGKAPKRLIYAASRLQSGVPSRFSGSGSGTEFTLTISSLQPEDFATYCCLQHHTYPPTFGQGTKVEIK
Question: Which results are given for B1?
Answer: blocking of the EPO/EPOR interaction [1]: nearly complete blocking; staining of 293T/CD131 cells [2]: did not stain; blocking of Stat5 phosphorylation [3]: complete blocking
